How the values were obtained:
[1] = target: T1, FUS F-CTD (RGG2-ZnF-RGG3, ZnF folded) (UniProt P35637 371-526); test: NMR HSQC titration (line broadening); Zn2+; all peaks lost at 1:1; 20 uM protein, 5 mM sodium phosphate pH 6.0, 1 mM MgCl2 (ZnCl2 added for full-length FUS and F-CTD), 25 C; settings: protein: recombinant; tags: none; G4 (by CD in the phosphate buffer)
[2] = target: FUS U-CTD (RGG2-ZnF-RGG3, ZnF unfolded) (UniProt P35637 371-526); test: NMR HSQC titration (CSD); no Zn; 1:10; Arg/Lys residues; 20 uM protein, 5 mM sodium phosphate pH 6.0, 1 mM MgCl2 (ZnCl2 added for full-length FUS and F-CTD), 25 C; settings: protein: recombinant, tags: none
[3] = target: T2, FUS NTD (PLD+RGG1) (UniProt P35637 1-267); test: NMR HSQC titration; 1 mM MgCl2; saturated at 1:2; RGG1 residues; 20 uM protein, 5 mM sodium phosphate pH 6.0, 1 mM MgCl2 (ZnCl2 added for full-length FUS and F-CTD), 25 C; settings: protein: recombinant; tags: none; G4 (by CD in the phosphate buffer)
[4] = target: T3, FUS full-length (UniProt P35637 1-526); test: NMR HSQC competition (displaces ATP); 3 mM ATP; 0.3 mM TssDNA; 20 uM protein, 5 mM sodium phosphate pH 6.0, 1 mM MgCl2 (ZnCl2 added for full-length FUS and F-CTD), 25 C; settings: protein: recombinant; tags: none (His-tag removed by stop codon); G4 (by CD in the phosphate buffer)
[5] = target: T1, FUS F-CTD (RGG2-ZnF-RGG3, ZnF folded); test: NMR HSQC titration (line broadening); Zn2+; same pattern as TssDNA; 20 uM protein, 5 mM sodium phosphate pH 6.0, 1 mM MgCl2 (ZnCl2 added for full-length FUS and F-CTD), 25 C; settings: protein: recombinant; tags: none; unstructured (CD)
[6] = target: T2, FUS NTD (PLD+RGG1); test: NMR HSQC titration; 1 mM MgCl2; same residues as TssDNA; 20 uM protein, 5 mM sodium phosphate pH 6.0, 1 mM MgCl2 (ZnCl2 added for full-length FUS and F-CTD), 25 C; settings: protein: recombinant; tags: none; unstructured (CD)
[7] = target: T3, FUS full-length; test: NMR HSQC titration (line broadening); Zn2+; highly similar to TssDNA; 20 uM protein, 5 mM sodium phosphate pH 6.0, 1 mM MgCl2 (ZnCl2 added for full-length FUS and F-CTD), 25 C; settings: protein: recombinant; tags: none (His-tag removed by stop codon); unstructured (CD)

Measured: binding result

T3 sequence (P35637 whole entry): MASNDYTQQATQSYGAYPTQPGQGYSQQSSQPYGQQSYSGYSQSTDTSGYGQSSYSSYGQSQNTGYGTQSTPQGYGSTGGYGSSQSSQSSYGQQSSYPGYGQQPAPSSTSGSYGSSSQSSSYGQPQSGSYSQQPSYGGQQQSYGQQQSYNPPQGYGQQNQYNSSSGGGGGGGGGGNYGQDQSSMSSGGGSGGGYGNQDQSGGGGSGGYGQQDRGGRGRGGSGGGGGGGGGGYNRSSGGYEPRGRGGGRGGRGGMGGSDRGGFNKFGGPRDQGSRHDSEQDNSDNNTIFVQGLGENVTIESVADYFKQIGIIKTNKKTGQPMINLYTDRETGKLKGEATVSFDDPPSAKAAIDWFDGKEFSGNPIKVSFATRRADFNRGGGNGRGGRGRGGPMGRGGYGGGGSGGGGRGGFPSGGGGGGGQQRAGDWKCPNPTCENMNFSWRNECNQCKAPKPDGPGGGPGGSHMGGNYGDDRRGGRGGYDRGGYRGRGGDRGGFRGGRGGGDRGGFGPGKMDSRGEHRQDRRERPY
T2 sequence (P35637 1-267): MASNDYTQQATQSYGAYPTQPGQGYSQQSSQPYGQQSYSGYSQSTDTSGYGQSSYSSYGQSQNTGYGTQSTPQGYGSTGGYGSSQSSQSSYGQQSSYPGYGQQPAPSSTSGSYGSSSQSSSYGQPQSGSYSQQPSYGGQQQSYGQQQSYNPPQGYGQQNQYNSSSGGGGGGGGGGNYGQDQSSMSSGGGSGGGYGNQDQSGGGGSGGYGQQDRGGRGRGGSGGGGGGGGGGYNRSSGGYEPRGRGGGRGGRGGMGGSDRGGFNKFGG
T1 sequence (P35637 371-526): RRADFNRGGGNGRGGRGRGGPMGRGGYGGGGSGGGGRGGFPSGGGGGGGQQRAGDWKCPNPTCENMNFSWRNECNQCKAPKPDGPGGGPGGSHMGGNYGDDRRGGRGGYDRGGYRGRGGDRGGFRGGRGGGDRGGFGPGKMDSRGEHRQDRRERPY
Sequence of FUS U-CTD (RGG2-ZnF-RGG3, ZnF unfolded) (P35637 371-526): as above

TTAGGGTTAGGGTTAGGGTTAGGG (structured_DNA) [TssDNA (telomeric ssDNA, 24-mer)]
binds: [1] | [2]; G4 (by CD in the phosphate buffer) | [3] | [4]

TTTTTTTTTTTTTTTTTTTTTTTT (ssDNA) [T24]
binds: [2]; unstructured (CD) | [5] | [6] | [7]
